The labels stand for the following.
B1: H1210 chimera (antibody, V domains shown)
VH: EVKLVESGGDLVKPGGSLKLSCAASGFTFSSYDMSWVRQTPEKSLEWVATISDGGGYIYYSDSVKGRFTISRDNAKNNLYLQMSSLRSEDTALYICAREFGKRYALDYWGQGTSVTVSS
VL: DIVMTQSHKFMSTSVGDRVSISCKASQDVTPAVAWYQQKPGQSPKLLIYSTSSRYTGVPDRFTGSGSGTDFTFTISSVQAEDLAVYYCQQHYTTPLTFGAGTKLELK
notes: also called chimeric antibody
B2: Hu1210-16 (antibody, V domains shown)
VH: EVQLVESGGGLVQPGGSLRLSCAASGFTFSSYDMSWVRQAPGKGLEWVATISDGGGYIYYSDSVKGRFTISRDNAKNSLYLQMNSLRDEDTAVYYCAREFGKRYALDYWGQGTTVTVSS
VL: DIQMTQSPSSLSASVGDRVTITCKASQDVTPAVAWYQQKPGKAPKLLIYSTSSRYTGVPSRFSGSGSGTDFTFTISSLQPEDIATYYCQQHYTTPLTFGQGTKLEIK
B3: Hu1210-19 (antibody, V domains shown)
VH: B2 VH with V5L, G44S, A75S, S78T, D88A, Y95I
VL: B2 VL with A43S
B4: Hu1210-22 (antibody, V domains shown)
VH: B2 VH with G44S, Y95I
VL: B2 VL with A43S
B5: Hu1210-3 (antibody, V domains shown)
VH: B2 VH with Q13K, G44S, D88A, Y95I
VL: B2 VL
notes: Not the mouse mAb HL1210-3
B6: Hu1210-14 (antibody, V domains shown)
VH: B2 VH with V5L, G44S, A75S, S78T, D88A, Y95I
VL: B2 VL
B7: Hu1210-8 (antibody, V domains shown)
VH: B2 VH with Q13K, D88A
VL: B2 VL with A43S
B8: Hu1210-27 (antibody, V domains shown)
VH: B2 VH with D88A, Y95I, T114L
VL: DIQMTQSPSSLSASVGDRVTITCKASQDVTPAVAWYQQKPGKAPKLLIYSTSSRYTGVPSRFSGSGSGTDFTLTISSLQPEDFATYYCQQHYTTPLTFGQGTKLEIKR
B9: Hu1210-17 (antibody, V domains shown)
VH: B2 VH with G44S, Y95I
VL: B2 VL
B10: Hu1210-31 (antibody, V domains shown)
VH: B2 VH with D88A, Y95I
VL: B8 VL
B11: Hu1210-36 (antibody, V domains shown)
VH: B2 VH with A40T, G42E, G44S, S78N, D88A, Y95I, T114L
VL: B8 VL

Substitutions are numbered along the chain they refer to.

The target of the first test is T1, human PD-L1 expressed on CHOK1 cells (PDL1-CHOK1 cell line) (human, UniProt Q9NZQ7 19-290).
T1 construct: whole, on cells; also called PDL1-CHOK1 cells; PD-L1 expressed on mammalian cells
T1 sequence (Q9NZQ7 19-290): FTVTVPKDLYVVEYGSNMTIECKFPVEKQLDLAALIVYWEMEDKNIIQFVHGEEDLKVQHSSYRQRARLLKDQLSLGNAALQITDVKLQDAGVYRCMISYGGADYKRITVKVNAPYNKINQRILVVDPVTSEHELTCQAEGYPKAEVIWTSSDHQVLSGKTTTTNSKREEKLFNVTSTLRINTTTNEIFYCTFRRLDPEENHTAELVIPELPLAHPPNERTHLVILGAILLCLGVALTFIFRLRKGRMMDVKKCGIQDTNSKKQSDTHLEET
In words: FACS receptor blocking: PDL1-CHOK1 cells, competitor Bio-PD1 (30 µg/ml). The method, then:
To evaluate the blocking effect of humanized antibodies on human PD-L1 expressed on mammalian cells to bind to its receptor PD-1, the FACS-based receptor blocking assay was employed. Briefly, PDL1-CHOK1 cells were firstly incubated with 3-fold serious diluted HL1210-3 mouse mAb starting at 20 μg/ml at RT for 1 hour. After wash by FACS buffer (PBS with 2% FBS), the biotin-labeled huPD-1 were added to each well and incubated at RT for 1 hour. Then, the Streptavidin-PE were added to each well for 0.5 hour post twice wash with FACS buffer. The mean florescence intensity (MFI) of PE were evaluated by FACSAriaIII.
B1 returned a TOP of 87.2%. On the same count and under the same terms, for B2 the value was 88%. Turning to B3, the TOP is 87.5%. Molecule B4 showed a TOP of 85.8%. With B5, the TOP was determined as 84.3%. Still for that read-out and setting: for B6 the value was 79.6%; for B7, 86.3%. On the same count and under the same terms, as for B8, the figure is 104%. B9 yielded a TOP of 80.9%. Still for that read-out and setting: for B10 the value was 92.9%. Turning to B11, the TOP amounted to 91.8%.

The next test deals with human PD-L1 expressed on CHOK1 cells (PDL1-CHOK1 cell line) (human) (UniProt Q9NZQ7). Kind of test: FACS on PDL1-CHOK1 cells, MFI of Alexa 488 anti-human IgG; EC50 table under the graph, unit from the x axis Antibodies(nM); fit value of a flat control curve, see non_binding.
Chain of human PD-L1 expressed on CHOK1 cells (PDL1-CHOK1 cell line) (human) (Q9NZQ7 19-290): as above
For Hu IgG (antibody), the concentration giving a half-maximal response (EC50) came to 9.55 µM.

Values taken from patent publication US20180346573A1 (I MAB, published 2018).
